We go through five substances from patent publication US20250179144A1.

Experiment [1] concerns the target G115 Vγ9Vδ2+ TCR His85γ-Ala expressed on transfected HEK293T cells. Put plainly: flow cytometry, tetramer-PE against CD3-APC on HEK293T cells co-transfected with CD3 and G115 His85γ-Ala TCR; SAv control 27.
In experiment [2] the target is G115 Vγ9Vδ2+ TCR wild-type expressed on transfected cells. The experiment in a line: flow cytometry, tetramer-PE against CD3-APC on HEK293T cells co-transfected with CD3 and G115 WT TCR; SAv control 27.
The target of experiment [3] is G115 Vγ9Vδ2+ TCR Lys53δ-Ala expressed on transfected HEK293T cells. Put plainly: flow cytometry, tetramer-PE against CD3-APC on HEK293T cells co-transfected with CD3 and G115 Lys53δ-Ala TCR; SAv control 27.
The target of experiment [4] is G115 Vγ9Vδ2+ TCR Glu52δ-Ala expressed on transfected HEK293T cells. Put plainly: flow cytometry, tetramer-PE against CD3-APC on HEK293T cells co-transfected with CD3 and G115 Glu52δ-Ala TCR; SAv control 32.
The target in experiment [5] is full-length human BTN3A1 on transfected cells (human) (UniProt O00481). The experiment in a line: flow cytometry, γδTCR tetramer-PE on BTN3A1-transfected NIH-3T3 cells treated with isotype IgG1κ (black number); SAv control 26.
Experiment [6] shares this target. Put plainly: flow cytometry, control tetramer-PE on BTN3A1-transfected NIH-3T3 cells treated with isotype IgG1κ (black number); SAv control 25.
Experiment [7] concerns the target full-length human BTN3A1 on transfected cells pre-treated (cross-linked) with anti-BTN3A mAb clone 20.1 (human). The experiment in a line: flow cytometry, FRET (YG 670/30) between TCR tetramer-PE and anti-BTN3A 20.1-AF647 on BTN3A1+ NIH-3T3 cells; with IgG1κ-AF647 the gate holds 0, with SAv 0.

Chain of mCD1d tet. ctl (P11609 22-305): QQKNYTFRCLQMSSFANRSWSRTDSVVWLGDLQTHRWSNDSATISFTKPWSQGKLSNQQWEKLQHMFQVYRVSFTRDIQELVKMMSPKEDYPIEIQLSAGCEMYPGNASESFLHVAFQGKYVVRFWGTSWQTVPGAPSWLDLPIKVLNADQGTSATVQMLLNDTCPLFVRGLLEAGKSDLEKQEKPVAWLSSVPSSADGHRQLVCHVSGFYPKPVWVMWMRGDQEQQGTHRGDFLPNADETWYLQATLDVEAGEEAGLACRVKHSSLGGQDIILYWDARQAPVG
Chain of soluble G115 Vγ9Vδ2+ TCR wild-type (TCR delta): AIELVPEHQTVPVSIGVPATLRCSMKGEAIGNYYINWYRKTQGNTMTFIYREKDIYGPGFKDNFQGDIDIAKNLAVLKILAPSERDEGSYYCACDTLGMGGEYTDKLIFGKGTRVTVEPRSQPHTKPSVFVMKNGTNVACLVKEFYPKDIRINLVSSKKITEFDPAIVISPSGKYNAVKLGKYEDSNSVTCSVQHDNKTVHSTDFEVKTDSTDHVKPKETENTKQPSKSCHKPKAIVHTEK
Chain of soluble G115 Vγ9Vδ2+ TCR wild-type (TCR gamma): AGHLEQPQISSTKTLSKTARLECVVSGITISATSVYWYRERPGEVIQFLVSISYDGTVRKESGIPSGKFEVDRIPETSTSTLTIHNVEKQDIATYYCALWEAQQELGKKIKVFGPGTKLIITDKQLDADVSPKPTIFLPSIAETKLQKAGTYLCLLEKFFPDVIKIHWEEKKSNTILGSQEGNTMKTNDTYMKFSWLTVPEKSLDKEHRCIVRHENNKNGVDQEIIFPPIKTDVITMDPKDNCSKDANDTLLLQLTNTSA

Consider “BTN2A1-BTN3A1-zipper ectodomain complex (construct #1, long linker version with high affinity zippers) (ligand)”, for which the MFI of PE in experiment [1] is 63; in experiment [2], 102; in experiment [3] it was 753; in experiment [4] it was 72.

Turning to “chimeric γδTCR tetramer: G115 pAg-reactive Vγ9+ γ-chain with 9C2 Vδ1+ δ-chain”, the MFI of PE (GFP+ gate) in experiment [5] turned out to be 24.

As for mCD1d tet. ctl, the MFI of PE in experiment [1] is 22; in experiment [2], 20; in experiment [3] it was 23; in experiment [4], 26. Also, the MFI of PE (GFP+ gate) in experiment [6] was determined as 32.

For “soluble BTN2A1 ectodomain lacking Cys247 (monomeric) (from UniProt Q7KYR7 29-246) (ligand)”, the MFI of PE in experiment [1] is 28; in experiment [2], 282; in experiment [3], 507; in experiment [4], 469.

As for soluble G115 Vγ9Vδ2+ TCR wild-type, in experiment [7], the % cells in the FRET gate turned out to be 19%. Moreover, in experiment [5], the MFI of PE (GFP+ gate) amounted to 35.
